{"source": "patent US8088892B2", "about": "“Inhibitors of proteins from the Rho-GEF family” (Centre National de la Recherche Scientifique (C.N.R.S.), priority 2002, dated 2012)", "molecules": {"B1": {"name": "TRIAPα: aptamer of 154 amino acids: variable region of 42 amino acids inserted into the thioredoxin protein; tested as GST fusion (protein)", "chain": "MSDKIIHLTDDSFDTDVLKADGAILVDFWAEWCGPAREGADGAICGYNLATLVMLGPSERVFCPLCEPCSSDIYELMGPCKMIAPILDEIADEYQGKLTVAKLNIDQNPGTAPKYGIRGIPTLLLFKNGEVASATKVGALSKGQLKEFLDANLA"}}, "key": {"[1]": {"test_system": "TrioGEFD2-mediated RhoA activation", "experiment": "RhoA activity assay (Rhotekin RBD pull-down) in COS cells", "assay_type": "cell-based", "conditions": "COS cells co-transfected, 48 hours", "text": "FIG. 5B represents the inhibitory effect of TRIPα on TrioGEFD2-mediated RhoA activation in intact cells using the RhoA activity assay, COS cells were transfected with GFP-TRIPα (left line), TrioGEFD2 (middle line) or both (right line). Cell lysates were subjected to GST-pulldown using the recombinant RBD (RhoA binding domain) fragment of the RhoA-specific effector Rhotekin. The presence of the GTP-bound form of RhoA and of the total RhoA protein was detected using a monoclonal anti-RhoA antibody and is represented in the upper two panels. GFP-TRIPα and TrioGEFD2 expression in the cell lysates is shown in the lower two panels.\nQuantification of the RhoA activity assay is shown in the right part of the figure. The y-axis represents the ratio between active RhoA and total RhoA, in arbitrary units.\nThe Inventors then wanted to assess the inhibition by TRIPα of TrioGEFD2-mediated activation of endogenous RhoA in intact cells. To do so, the RhoA activity assay was used to detect the active GTP-bound form of RhoA (Ren et al., 1999). Briefly, COS cells were transfected as described in FIG. 5A with TrioGEFD2 in absence or in the presence of GFP-TRIAPα. 48 hours after transfection, cell lysates were subjected to GST-pull down using 20 μg of the recombinant RBD (RhoA binding domain) fragment of the RhoA-specific effector Rhotekin, that binds only to the activated GTP-bound form of RhoA."}, "[2]": {"biological_target": "T1, TrioGEFD2 (DH2PH2, amino acids 1848-2298) (Homo sapiens, UniProt O75962)", "T1 construct": "TrioGEFD2 (DH2PH2, amino acids 1848-2298); expressed in transfected cells; host or cells: yeast strain EGY048", "experiment": "Binding specificity of aptamers in yeast (two-hybrid, growth on selective medium)", "design": "key to Binding in yeast: +++^1 and +^1 represent respectively a full and a partial (see FIG. 1) binding capacity; +++^1 and +^1 represent respectively a full and a partial (see FIG. 1) binding capacity; −−^1 represents a lack of binding", "text": "Trx represents the thioredoxin protein with no inserted peptide.\nIn order to identify specific inhibitors of TrioGEFD2, a recently developed strategy was used, this strategy being derived from the yeast two hybrid system, where the cDNA library of preys has been replaced by a combinatorial library of short peptides (20 amino acids) in fusion with the bacterial protein thioredoxin A (Colas et al., 1996). This strategy has been successfully used to isolate specific inhibitors of the cyclin-dependent kinases (Cdks), the cell cycle transcription factor E2F, or the viral HPV16 E6 oncoprotein and HBEV core protein (Colas et al., 1996; Butz et al., 2001; Fabrizzio et al., 1999; Geyer et al., 2000). The TrioGEFD2 bait was constructed as follows: plasmid pMTHATrio1848-2298 (Bellanger et al., 1998) was digested with EcoRI/XhoI and the insert cloned in pEG202EcoRI/XhoI to generate the bait pEG202TroGEFD2. Yeast strain EGY048 (Colas et al., 1996) was transformed with pEG202TrioGEFD2 and subsequently with the library of Thioredoxin constrained aptamers according to standard procedures (Ito et al., 1983). After transformation, cells were allowed to recover for 4 hours in galactose containing medium before plating on selective galactose medium. Of the 2×10^6 screened colonies, those growing in the selective medium were recovered and retested for interaction. […]"}}}
{"molecule": "AREGADGAICGYNLATLVMLGPSERVFCPLCEPCSSDIYELM [TRIPα, 42-amino acid peptide corresponding to the variable region of TRIAPα]", "values": [{"measurement": "Inhibition of TrioGEFD2-mediated RhoA activation in intact cells", "setting": "[1]", "value": "able to inhibit TrioGEFD2-mediated RhoA activation"}]}
{"molecule": "B1", "values": [{"measurement": "Binding in yeast", "setting": "[2]; RhoGEF TrioDH2PH2", "value": "+++^1"}, {"measurement": "Binding to TrioGEFD2 (DH2PH2) in yeast", "setting": "[2]; growth on selective medium", "value": "binding to TrioGEFD2"}]}
